Experimental data: PMC5014651

B1: 16-bp dsRNA (dsRNA)
RNA 1: CGCCUGUAGAGGAUGG
RNA 2: CCAUCCUCUACAGGCG

Legend:
[1] = target: NS1B C-terminal domain (residues 141-281 of NS1B, influenza B/Lee/1940) (influenza B virus (B/lee/1940)) (UniProt P03502); assay: NMR rotational correlation time
[2] = target: NS1B C-terminal domain (residues 141-281 of NS1B, influenza B/Lee/1940) (influenza B virus (B/lee/1940)) (UniProt P03502); assay: NMR titration
[3] = target: NS1A CTD (Influenza A virus (Udorn), UniProt P03495 85-215); assay: fluorescence polarization
[4] = target: T1, NS1B CTD wt (Influenza B virus (B/Lee/1940), UniProt P03502 141-281); assay: fluorescence polarization
T1 sequence: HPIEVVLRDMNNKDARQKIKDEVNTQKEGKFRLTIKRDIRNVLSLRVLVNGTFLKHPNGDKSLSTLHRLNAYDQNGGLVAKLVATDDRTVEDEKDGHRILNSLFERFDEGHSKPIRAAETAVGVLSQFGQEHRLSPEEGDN

Chain of NS1A CTD (P03495 85-215): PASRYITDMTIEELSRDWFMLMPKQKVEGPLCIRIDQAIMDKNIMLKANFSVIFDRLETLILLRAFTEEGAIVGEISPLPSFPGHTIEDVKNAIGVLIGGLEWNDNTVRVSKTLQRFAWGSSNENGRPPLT

Molecule	Kd [1]	stoichiometry N [1]	Kd [2]	binding result [3]	Kd [4]
NS1B C-terminal domain (residues 141-281 of NS1B, influenza B/Lee/1940) (from UniProt P03502 141-281) (domain or fragment)	700 µM	2	600 µM	–	–
B1	–	–	–	no binding	0.13 ± 0.03 µM
CGCCUGUAGAGGAUGG (ssRNA) [16 minus ssRNA (antisense)]	–	–	–	–	0.58 ± 0.05 µM
